Target: the molecule itself
Assay: SEC

B1: Gloeobacter ligand-gated ion channel (natural protein)
chain: QDMVSPPPPIADEPLTVNTGIYLIECYSLDDKAETFKVNAFLSLSWKDRRLAFDPVRSGVRVKTYEPEAIWIPEIRFVNVENARDADVVDISVSPDGTVQYLERFSARVLSPLDFRRYPFDSQTLHIYLIVRSVDTRNIVLAVDLEKVGKNDDVFLTGWDIESFTAVVKPANFALEDRLESKLDYQLRISRQYFSYIPNIILPMLFILFISWTAFWSTSYEANVTLVVSTLIAHIAFNILVETNLPKTPYMTYTGAIIFMIYLFYFVAVIEVTVQHYLKVESQPARAASITRASRIAFPVVFLLANIILAFLFFGF
stoichiometry N: 5

— article PMC6311151 (Biochimica et biophysica acta. Molecular and cell biology …, 2018)
